Experimental data as given in publication PMC8915372.

Biological target: HLA-A*03:01 (HLA class I molecule of HLA-A3+ NBS fibroblasts) (human | human (endogenous in NBS fibroblasts))
Experiment: affinity purification with mass spectrometry

B1: A3-RPL28^74-84(p76S>F) 11-mer peptide (peptide)
peptide: ATFYVRTTINK
  amount of peptide detected by PRM in the HLA class I eluate (fmol/million cells): 3.67
